Experiment [1] addresses T1, HAUSP TRAF-like domain (residues 53–206) (Homo sapiens, UniProt Q93009).
T1 construct: GST (N); made in house; host or cells: Escherichia coli BL21(DE3), vector pGEX-2T
As to the kind of experiment: gel filtration binding assay of MDM2 fragments with HAUSP TRAF-like domain. The following applies: Superdex-200, HAUSP residues 53–206, 25 mM Tris pH 8.0, 100 mM NaCl, 2 mM DTT, 4 °C. The method, then:
(§1) Size-exclusion chromatography (gel filtration), using a Superdex-200 column (10/30, Amersham Pharmacia Biotech, Piscataway, New Jersey, United States), was employed to carry out all the in vitro binding assays. Proteins subjected to binding tests were incubated at 4 °C for at least 45 min to allow equilibrium to be reached. The flow rate was 0.5 ml/min, and the buffer contained 25 mM Tris (pH 8.0), 100 mM NaCl, and 2 mM DTT. All fractions were collected at 0.5 ml each. Aliquots of relevant fractions were mixed with SDS sample buffer and subjected to SDS-polyacrylamide gel electrophoresis. The proteins were visualized by Coomassie Blue staining. The column was calibrated with molecular-mass standards.

In experiment [2] the test system is HAUSP TRAF-like domain (residues 1–206). As to the kind of experiment: gel filtration binding assay with HAUSP (residues 1–206). Conditions: Superdex-200, 25 mM Tris pH 8.0, 100 mM NaCl, 2 mM DTT, 4 °C, SDS-PAGE/Coomassie, protein alone, no competitor. The method, then: as §1
Experiment [3] shares this test system. As to the kind of experiment: in vitro competition assay using gel filtration chromatography, MDM2 versus p53. Conditions: 10-fold molar equivalence of p53 (351–382) preincubated with HAUSP 5 min at 4 °C, then one molar equivalence of MDM2 (208–289) 45 min at 4 °C, SDS-PAGE/Coomassie. It is filed as binding.

Entries after “also recorded” stand apart in the source; their conditions may differ.

T1 sequence (Q93009 53-206): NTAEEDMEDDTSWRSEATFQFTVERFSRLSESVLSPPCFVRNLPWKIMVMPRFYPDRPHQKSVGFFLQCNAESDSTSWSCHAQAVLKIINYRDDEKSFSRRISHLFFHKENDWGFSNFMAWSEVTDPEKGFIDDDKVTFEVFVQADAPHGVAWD

B1: MDM2 fragment residues 170–232: MDM2 fragment encompassing residues 170–232 (protein)
chain: ENSDELSGERQRKRHKSDSISLSFDESLALCVIREICCERSSSSESTGTPSNPDLDAGVSEHS
Turning to B1, the “complex formation with HAUSP TRAF-like domain” value in experiment [1] was “formed a stable complex”.

B2: MDM2 (residues 208–289): MDM2 fragment, residues 208–289 (protein)
chain: ERSSSSESTGTPSNPDLDAGVSEHSGDWLDQDSVSDQFSVEFEVESLDSEDYSLSEEGQELSDEDDEVYQVTVYQAGESDTD
On to B2, for which the “complex formation with HAUSP (residues 1–206)” value in experiment [2] is given as “interacts”. The “complex formation with HAUSP in competition” value in experiment [3] is “formed a stable complex only with MDM2; also recorded: formed a stable complex with HAUSP”.

B3: MDM2 fragment residues 223–289: MDM2 fragment encompassing residues 223–289 (protein)
chain: DLDAGVSEHSGDWLDQDSVSDQFSVEFEVESLDSEDYSLSEEGQELSDEDDEVYQVTVYQAGESDTD
With B3, in experiment [1], the “complex formation with HAUSP TRAF-like domain” value was “formed a stable complex”.

The values above are taken from paper PMC1334386 (PLoS Biology, 2006).
